According to article PMC7171172:

Molecular target: Rhodobacter capsulatus formate dehydrogenase subunit FdsA (Rhodobacter capsulatus)
Test: cryo-EM structure; single particle analysis of the co-expressed, co-purified RcFDH complex (100 µg/ml), as isolated with 10 mM azide and after 5 min with 2 mM NADH; C2 symmetry imposed; 3.3 Å and 3.2 Å

stoichiometry N: 2
Substance: Rhodobacter capsulatus formate dehydrogenase subunit FdsA (natural protein)
